Test results published in US20100286035A1, “NEUROMEDIN U DERIVATIVE” (Takeda Pharmaceutical Company Limited, published 2010).
Each block holds one binder with its values, some of them ahead of it. *1 amine or outer side, *2 acyl side, *3 side chain or, on linkers, in order; H or OH if unused. Primed or numbered codes have the meaning given here. Where no end group is shown, it is not given here. The star is where a group is joined. KMUS = cross-linking reagent joining N-terminal amine to thiol PEG, O=C1CC([*:3])C(=O)N1CCCCCCCCCCC(=O)[*:2]; GMBS = cross-linking reagent joining N-terminal amine to thiol PEG, O=C1CC([*:3])C(=O)N1CCCC(=O)[*:2]; SMCC = cross-linking reagent joining N-terminal amine to thiol PEG; Hexanoyl(6-succinimido-3yl) = O=C1CC([*:1])C(=O)N1CCCCCC(=O)[*:2]; AMBz = omega-aminocarboxylic acid linker (structure only drawn); AU″ = omega-aminocarboxylic acid linker (structure only drawn); ACP = omega-aminocarboxylic acid linker; Traut's reagent = N=C(CCCS)*; AB = not defined here; AD = not defined here; AP = not defined here; AU = not defined here

Tests used:
[1] = target: T1, human FM3 (NMUR1) (human); experiment: competition with 125I-NMU8, human FM3/CHO membrane fraction, filter binding
T1 chain: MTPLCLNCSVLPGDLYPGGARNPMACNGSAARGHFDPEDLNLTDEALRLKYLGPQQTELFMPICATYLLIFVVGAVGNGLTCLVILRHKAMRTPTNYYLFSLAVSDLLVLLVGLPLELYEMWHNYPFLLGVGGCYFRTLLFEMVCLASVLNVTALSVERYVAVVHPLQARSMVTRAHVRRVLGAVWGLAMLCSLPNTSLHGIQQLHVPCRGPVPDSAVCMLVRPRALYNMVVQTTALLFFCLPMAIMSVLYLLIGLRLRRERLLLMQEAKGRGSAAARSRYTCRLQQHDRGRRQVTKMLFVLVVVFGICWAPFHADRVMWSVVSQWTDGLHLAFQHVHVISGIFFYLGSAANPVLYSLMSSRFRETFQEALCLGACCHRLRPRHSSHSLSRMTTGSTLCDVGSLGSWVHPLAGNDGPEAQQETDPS
Method: (§1) The protein concentrations in the FM3 and TGR1 membrane fractions were 12 and 22 μg/ml, respectively.
(§2) Namely, dilution strings of NMU derivatives and PEG conjugates were provided and diluted membrane fraction solutions (200 μl) were added. The mixture was thoroughly blended with a Vortex and the labeled ligand 2 μl (final concentration […]) was added to carry out the reaction at 25° C. for 60 min. According to the aforementioned operations, the amount of binding of the labeled ligand remaining in the filter was measured and the IC50 values were calculated using graph pad PRISM (FIG. 4A (FM3 receptor binding), FIG. 4B (TGR1 receptor binding), FIG. 4C (FM3 receptor binding), FIG. 4D (TGR1 receptor binding) Table 9).

[2] = target: human TGR1 (NMUR2) (human); experiment: competition with 125I-NMU8, human TGR1/CHO membrane fraction, filter binding
Method: as §1, §2

[3] = target: T1, human FM3 (NMUR1); experiment: competition with 125I-NMU8, membrane fraction, filter binding; only one value in the row, read as the FM3 column
Method: as §1, §2

[4] = target: T1, human FM3 (NMUR1); experiment: Scatchard analysis, radioligand filter binding, human FM3/CHO membrane fraction
Method: as §1

[5] = target: human TGR1 (NMUR2) (human); experiment: Scatchard analysis, radioligand filter binding, human TGR1/CHO membrane fraction
Method: as §1

Chain of human TGR1 (NMUR2) (human) (chain, as listed by the source): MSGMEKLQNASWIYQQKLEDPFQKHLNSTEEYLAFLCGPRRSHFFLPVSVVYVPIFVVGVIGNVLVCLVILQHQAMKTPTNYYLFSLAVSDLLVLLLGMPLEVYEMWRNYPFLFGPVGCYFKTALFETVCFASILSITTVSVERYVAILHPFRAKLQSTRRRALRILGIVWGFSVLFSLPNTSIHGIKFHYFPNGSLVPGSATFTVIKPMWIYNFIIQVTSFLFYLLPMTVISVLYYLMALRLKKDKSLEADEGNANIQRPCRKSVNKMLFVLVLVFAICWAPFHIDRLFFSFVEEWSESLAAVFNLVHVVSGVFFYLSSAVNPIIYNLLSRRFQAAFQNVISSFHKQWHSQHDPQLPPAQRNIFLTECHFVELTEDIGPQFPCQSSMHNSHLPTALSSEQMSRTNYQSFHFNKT

B2: PEG30k(KMUS)-NMU-8 (peptide)
peptide: {PEG 30 kDa-KMUS}-YFLFRPRN-NH2
IC50 [1]: 51 nM | IC50 [2]: 26 nM

B5: PEG30k(AMBz)-NMU-8 (peptide)
peptide: {PEG 30 kDa-AMBz}-YFLFRPRN-NH2
IC50 [1]: 75 nM | IC50 [2]: 110 nM

B6: PEG30k(AU)-NMU-8 (peptide)
peptide: {PEG 30 kDa-AU″}-YFLFRPRN-NH2
IC50 [1]: 60 nM | IC50 [2]: 54 nM

B9: PEG30k(ACP)-NMU-8 (peptide)
peptide: {PEG30k-ACP}-YFLFRPRN-NH2
IC50 [3]: 59 nM

B10: 125I-NMU8 (radiation labeled ligand) (peptide)
peptide: YFLFRPRN-NH2
modifications: also: 125I label (position not given here)
Kd [4]: 164000 nM | Kd [5]: 135000 nM

B11: PEG30k(NHAc)-Cys-NMU-8 (peptide)
peptide: C(PEG 30 kDa)FFLFRPRN-NH2
IC50 [1]: 18 nM | IC50 [2]: 9.1 nM

B15: (PEG20k)2(AU)-NMU-8 (peptide)
peptide: {(PEG20k)2-AU}-YFLFRPRN-NH2
modifications: reading uncertain; also: printed as (PEG20k)2(AU)-NMU-8
IC50 [1]: 330 nM | IC50 [2]: 560 nM

B19: (PEG20k)2(AMBz)-NMU-8 (peptide)
peptide: {(PEG20k)2-AMBz}-YFLFRPRN-NH2
IC50 [1]: 210 nM | IC50 [2]: 320 nM

B20: PEG30k(AB)-NMU-8 (peptide)
peptide: {PEG 30 kDa-AB}-YFLFRPRN-NH2
modifications: reading uncertain; also: printed as PEG30k(AB)-NMU-8
IC50 [3]: 82 nM

B21: PEG30k(NH-AU)-NMU-8 (peptide)
peptide: {PEG 30 kDa-AU″}-YFLFRPRN-NH2
IC50 [1]: 18 nM | IC50 [2]: 22 nM

B22: (PEG20k)2(ACP)-NMU-8 (peptide)
peptide: {(PEG20k)2-ACP}-YFLFRPRN-NH2
IC50 [1]: 280 nM | IC50 [2]: 420 nM

B23: PEG30k(AP)-NMU-8 (peptide)
peptide: {PEG 30 kDa-AP}-YFLFRPRN-NH2
modifications: reading uncertain; also: printed as PEG30k(AP)-NMU-8
IC50 [3]: 64 nM

B25: (PEG20k)2(AB)-NMU-8 (peptide)
peptide: {(PEG20k)2-AB}-YFLFRPRN-NH2
modifications: reading uncertain; also: printed as (PEG20k)2(AB)-NMU-8
IC50 [3]: 380 nM

B26: PEG30k(AD)-NMU-8 (peptide)
peptide: {PEG 30 kDa-AD}-YFLFRPRN-NH2
modifications: reading uncertain; also: printed as PEG30k(AD)-NMU-8
IC50 [1]: 130 nM | IC50 [2]: 120 nM

B28: (PEG20k)2-NMU-8 (peptide)
peptide: {(PEG20k)2}-YFLFRPRN-NH2
IC50 [1]: 270 nM | IC50 [2]: 210 nM

B29: (PEG20k)2(AP)-NMU-8 (peptide)
peptide: {(PEG20k)2-AP}-YFLFRPRN-NH2
modifications: reading uncertain; also: printed as (PEG20k)2(AP)-NMU-8
IC50 [3]: 230 nM

B30: (PEG20k)2(AD)-NMU-8 (peptide)
peptide: {(PEG20k)2-AD}-YFLFRPRN-NH2
modifications: reading uncertain; also: printed as (PEG20k)2(AD)-NMU-8
IC50 [1]: 380 nM | IC50 [2]: 730 nM

Next, values leading:

IC50 [1]: 7.5 nM | IC50 [2]: 4.1 nM
B1: PEG30k(GMBS)-NMU-8 (peptide)
peptide: {PEG 30 kDa-GMBS}-YFLFRPRN-NH2

IC50 [1]: 6.7 nM | IC50 [2]: 9.4 nM
B3: PEG30k(NH-AMBz)-NMU-8 (peptide)
peptide: {PEG 30 kDa-AMBz}-YFLFRPRN-NH2
modifications: also: PEG attached by reductive amination (NH link) to linker

IC50 [1]: 0.19 nM | IC50 [2]: 0.089 nM
B4: NMU-8 (peptide)
peptide: YFLFRPRN-NH2

IC50 [1]: 11 nM | IC50 [2]: 11 nM
B7: PEG30k-NH-NMU-8 (peptide)
peptide: {PEG 30 kDa}-YFLFRPRN-NH2

IC50 [1]: 6.3 nM | IC50 [2]: 6.9 nM
B8: PEG30k(NH-AP)-NMU-8 (peptide)
peptide: {PEG 30 kDa-AP}-YFLFRPRN-NH2
modifications: reading uncertain; also: printed as PEG30k(NH-AP)-NMU-8

IC50 [1]: 4.5 nM | IC50 [2]: 4.3 nM
B12: PEG30k(SMCC)-NMU-8 (peptide)
peptide: {PEG 30 kDa-SMCC}-YFLFRPRN-NH2

IC50 [1]: 5.7 nM | IC50 [2]: 66 nM
B13: PEG30k-NMU-8 (peptide)
peptide: {PEG 30 kDa}-YFLFRPRN-NH2

IC50 [1]: 7 nM | IC50 [2]: 32 nM
B14: PEG30k(NH-AD)-NMU-8 (peptide)
peptide: {PEG 30 kDa-AD}-YFLFRPRN-NH2
modifications: reading uncertain; also: PEG-aldehyde bound by reductive amination (NH linkage), printed as PEG30k(NH-AD)-NMU-8

IC50 [1]: 6.4 nM
B16: PEG30k(Traut)-NMU-8 (peptide)
peptide: {PEG‑maleimide 30 kDa-Traut's reagent}-YFLFRPRN-NH2

IC50 [1]: 11 nM | IC50 [2]: 11 nM
B17: PEG30k(EMCS)-NMU-8 (peptide)
peptide: {PEG 30 kDa-Hexanoyl(6-succinimido-3yl)}-YFLFRPRN-NH2

IC50 [1]: 2.3 nM | IC50 [2]: 1.9 nM
B18: PEG30k-Cys-NMU-8 (peptide)
peptide: C(PEG 30 kDa)FFLFRPRN-NH2

IC50 [1]: 7.3 nM | IC50 [2]: 7.9 nM
B24: PEG30k(NH-ACP)-NMU-8 (peptide)
peptide: {PEG 30 kDa-ACP}-YFLFRPRN-NH2
modifications: also: PEG-aldehyde bound by reductive amination (NH linkage)

IC50 [1]: 2.4 nM | IC50 [2]: 2.5 nM
B27: PEG30k(NH-AB)-NMU-8 (peptide)
peptide: {PEG 30 kDa-AB}-YFLFRPRN-NH2
modifications: reading uncertain; also: PEG attached by reductive amination (NH link) to linker, printed as Try-Phe-Leu-Phe-Arg-Pro-Arg-Asn-NH2
